Assay results reported in the supplement of paper PMC9233669.
Variants at the floor of the assay were thinned out.

Columns and labels:
[1] = test system: biotinyl-Phe-oxazolone; assay: self-aminoacylation, catalytic enhancement (BFO) (fold over background); higher = more active; k-Seq, kA / k0A0; sequences stand for … in GGGAAUGGAUCCACAUCUACGAAUUC…UUCACUGCAGACUUGACGAAGCUG
How it was run: (§1)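 Each biotinyl-aminoacyl-oxazolone, at 2–1250 μM, was incubated with mutagenized RNA pools (0.43 μM) carrying a 21-nt variable region. The 50 μL reactions contained HEPES/NaCl/KCl/MgCl2/CaCl2 buffer with 5% acetonitrile at pH 6.9–7.0 and ran for 90 minutes at room temperature. After streptavidin capture, RNA was measured by qPCR in triplicate and by Illumina sequencing, and catalytic enhancement was calculated as median kA over the uncatalyzed rate from a pseudo-first-order fit of per-sequence fraction reacted.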

[2] = test system: biotinyl-Ile-oxazolone; assay: self-aminoacylation, catalytic enhancement (BIO) (fold over background); higher = more active; k-Seq, kA / k0A0; sequences stand for … in GGGAAUGGAUCCACAUCUACGAAUUC…UUCACUGCAGACUUGACGAAGCUG
How it was run: as §1

[3] = test system: biotinyl-Met-oxazolone; assay: self-aminoacylation, catalytic enhancement (BMO) (fold over background); higher = more active; k-Seq, kA / k0A0; sequences stand for … in GGGAAUGGAUCCACAUCUACGAAUUC…UUCACUGCAGACUUGACGAAGCUG
How it was run: as §1

[4] = test system: biotinyl-Val-oxazolone; assay: self-aminoacylation, catalytic enhancement (BVO) (fold over background); higher = more active; k-Seq, kA / k0A0; sequences stand for … in GGGAAUGGAUCCACAUCUACGAAUUC…UUCACUGCAGACUUGACGAAGCUG
How it was run: as §1

[5] = test system: biotinyl-Leu-oxazolone; assay: self-aminoacylation, catalytic enhancement (BLO) (fold over background); higher = more active; k-Seq, kA / k0A0; sequences stand for … in GGGAAUGGAUCCACAUCUACGAAUUC…UUCACUGCAGACUUGACGAAGCUG
How it was run: as §1

[6] = test system: biotinyl-Trp-oxazolone; assay: self-aminoacylation, catalytic enhancement (BWO) (fold over background); higher = more active; k-Seq, kA / k0A0; sequences stand for … in GGGAAUGGAUCCACAUCUACGAAUUC…UUCACUGCAGACUUGACGAAGCUG
How it was run: as §1

Sequence	self-aminoacylation [1]	self-aminoacylation [2]	self-aminoacylation [3]	self-aminoacylation [4]	self-aminoacylation [5]	self-aminoacylation [6]
AACUUUGCUAAUAGUCACAAG [Fam3.1 aminoacylation ribozyme variant]	3.95	2.2	1.47	2.09	1.87	2.52
AACUUUGCUAAUAGUCGCAGG [Fam3.1 aminoacylation ribozyme variant]	14.1	2.29	3.29	2.29	2.75	3.48
AACUUUGCUAAUAGUCGCGAG [Fam3.1 aminoacylation ribozyme variant]	19.5	3.52	2.99	2.76	3.74	3.11
AACUUUGCUAAUAGUCGCUAG [Fam3.1 aminoacylation ribozyme variant]	2.6	2.28	2.22	1.64	2.78	1.84
AACUUUGCUAAUAGUCUCAAG [Fam3.1 aminoacylation ribozyme variant]	3.43	1.47	1.39	1.42	1.54	1.5
AACUUUGCUAUUAGUCGCAAG [Fam3.1 aminoacylation ribozyme variant]	4.36	2.57	2.34	2	2.73	2.99
AAGAGUGCUAAUAGUCGCAAG [Fam3.1 aminoacylation ribozyme variant]	3.44	2.29	1.82	1.73	2.19	1.89
AAGAUUGCUAAUACUCGCAAG [Fam3.1 aminoacylation ribozyme variant]	1.48	1.72	1.41	1.37	1.24	1.91
AAGAUUGCUAAUAGUCGCAGG [Fam3.1 aminoacylation ribozyme variant]	7.75	1.34	1.49	1.64	2.05	1.83
AAGAUUGCUAAUAGUGGCAAG [Fam3.1 aminoacylation ribozyme variant]	0.997	0.786	0.871	0.702	0.906	0.941
AAGAUUGCUAAUCGUCGCAAG [Fam3.1 aminoacylation ribozyme variant]	1.34	2.12	1.57	1.52	1.2	2.1
AAGAUUGCUAUUAGUCGCAAG [Fam3.1 aminoacylation ribozyme variant]	1.79	1.73	1.55	1.6	1.62	1.87
AAGAUUGGUAAUAGUCGCAAG [Fam3.1 aminoacylation ribozyme variant]	1.65	2.04	1.75	1.59	2.02	2.54
AAGCUUGCUAAUAGACGCAAG [Fam3.1 aminoacylation ribozyme variant]	1.7	0.821	1.51	0.9	0.763	0.574
AAGCUUGCUAAUAGUCGCCAG [Fam3.1 aminoacylation ribozyme variant]	14.9	2.3	2.39	2.33	2.63	3.3
AAGCUUGCUAAUAGUCGUAAG [Fam3.1 aminoacylation ribozyme variant]	8.49	1.26	1.12	1.48	0.843	2.69
AAGCUUGCUAAUUGUCGCAAG [Fam3.1 aminoacylation ribozyme variant]	2.23	1.96	2.38	1.57	2.25	1.99
AAGCUUGCUAGUAGUCGCAAG [Fam3.1 aminoacylation ribozyme variant]	2.3	1.48	1.89	1.33	1.43	0.908
AAGCUUGCUCAUAGUCGCAAG [Fam3.1 aminoacylation ribozyme variant]	2.34	1.99	2.05	1.99	1.52	1.59
AAGGGUGCUAAUAGUCGCAAG [Fam3.1 aminoacylation ribozyme variant]	6.2	1.72	1.74	1.36	1.5	2.93
AAGGUUGCGAAUAGUCGCAAG [Fam3.1 aminoacylation ribozyme variant]	6.53	1.64	1.37	1.03	1.2	0.982
AAGGUUGCUAAGAGUCGCAAG [Fam3.1 aminoacylation ribozyme variant]	1.9	1.17	0.884	1.03	1.1	1.57

Sequence	self-aminoacylation [1]	self-aminoacylation [2]	self-aminoacylation [3]	self-aminoacylation [4]	self-aminoacylation [5]	self-aminoacylation [6]
AAGGUUGCUAAUAGCCGCAAG [Fam3.1 aminoacylation ribozyme variant]	1.49	1.57	1.06	1.28	1.31	1.41
AAGGUUGCUAAUAGUCGCAAG [Fam3.1 aminoacylation ribozyme variant]	6.56	1.32	1.29	1.23	1.25	2.64
AAGGUUGCUAAUAGUCGCAUG [Fam3.1 aminoacylation ribozyme variant]	2.16	1.66	1.34	1.34	1.45	2
AAGGUUGCUAUUAGUCGCAAG [Fam3.1 aminoacylation ribozyme variant]	2.24	1.66	1.3	1.18	1.56	1.53
AAGGUUGUUAAUAGUCGCAAG [Fam3.1 aminoacylation ribozyme variant]	2.51	1.86	1.72	1.39	1.69	1.53
AAGUAUGCAAAUAGUCGCAAG [Fam3.1 aminoacylation ribozyme variant]	1.55	1.17	1.06	1.05	1.02	1.76
AAGUAUGCUAACAGUCGCAAG [Fam3.1 aminoacylation ribozyme variant]	13.3	1.82	1.42	1.54	1.45	4.66
AAGUCUGCCAAUAGUCGCAAG [Fam3.1 aminoacylation ribozyme variant]	1.53	1.18	1.84	1.06	0.879	1.28
AAGUCUGCUAAUAGUCGCAUG [Fam3.1 aminoacylation ribozyme variant]	2.06	0.998	1.72	1.27	1.89	1.91
AAGUCUGCUAAUGGUCGCAAG [Fam3.1 aminoacylation ribozyme variant]	5.79	0.882	1.3	0.865	0.959	0.919
AAGUGCGCUAAUAGUCGCAAG [Fam3.1 aminoacylation ribozyme variant]	3.73	1.84	1.19	1.8	1.38	4.08
AAGUGUGCUAAUAGCCGCAAG [Fam3.1 aminoacylation ribozyme variant]	3.94	1.81	1.49	1.48	1.2	2.61
AAGUGUGCUAAUAGUCGCAUG [Fam3.1 aminoacylation ribozyme variant]	1.09	1.38	1.44	1.3	1.86	1.98
AAGUGUGCUAAUAGUCGCUAG [Fam3.1 aminoacylation ribozyme variant]	0.823	1.23	0.976	0.925	0.893	0.788
AAGUGUGGUAAUAGUCGCAAG [Fam3.1 aminoacylation ribozyme variant]	1.5	1.43	1.15	1.16	1.48	1.15
AAGUUAGCUAAUAGUCCCAAG [Fam3.1 aminoacylation ribozyme variant]	2.79	1.15	1.18	0.967	1	1.1
AAGUUAGCUAAUAGUGGCAAG [Fam3.1 aminoacylation ribozyme variant]	0.615	0.718	0.809	0.648	0.554	0.543
AAGUUAGCUAAUAGUUGCAAG [Fam3.1 aminoacylation ribozyme variant]	1.8	1.47	1.45	1.33	1.59	2.07
AAGUUAGCUAAUAUUCGCAAG [Fam3.1 aminoacylation ribozyme variant]	2.26	1.78	1.43	1.39	1.33	1.59
AAGUUCGCUAAUAGUCGCCAG [Fam3.1 aminoacylation ribozyme variant]	11.6	2.33	1.84	1.81	1.79	2.27
AAGUUCGCUAAUAGUCGCGAG [Fam3.1 aminoacylation ribozyme variant]	15.2	3.31	2.09	2.51	2.18	4
